Source: US20190076400A1 (PROTAGONIST THERAPEUTICS, published 2019)
Numbered stars: 1 amine (or outer) side, 2 acyl side, 3 side chain; on linkers, the order of the positions; unused ones are H or OH. Square brackets hold non-standard residues; d marks the D form. Phe(2,6-Me2,4-CONH2) = Cc1cc(C(N)=O)cc(C)c1C[C@H](N)C(=O)O; Bip = N[C@@H](Cc1ccc(-c2ccccc2)cc1)C(=O)O; Phe(4-CN) = N#Cc1ccc(C[C@H](N)C(=O)O)cc1; Phe(4-F) = N[C@@H](Cc1ccc(F)cc1)C(=O)O; Dmt = Cc1cc(O)cc(C)c1C[C@H](N)C(=O)O; hPhe = N[C@@H](CCc1ccccc1)C(=O)O; NMeβAla = CN(CCC(=O)[*:2])[*:1]; Tic = O=C(O)[C@@H]1Cc2ccccc2CN1; dTic = O=C(O)[C@H]1Cc2ccccc2CN1; β3hF = N[C@H](CC(=O)O)Cc1ccccc1; dNMeA = CN[C@H](C)C(=O)O; Aib = CC(C)(N)C(=O)O; Sar = CNCC(=O)O

Assays:
[1] = target: δ-opioid receptor (DOR), Human-ORPD1 (human, UniProt P41143 1-372); assay: cell-based or functional assay
[2] = target: µ-opioid receptor (MOR), Human-ORPM1 (human, UniProt P35372 1-400); assay: cell-based or functional assay
µ-opioid receptor (MOR), Human-ORPM1, sequence (P35372 whole entry): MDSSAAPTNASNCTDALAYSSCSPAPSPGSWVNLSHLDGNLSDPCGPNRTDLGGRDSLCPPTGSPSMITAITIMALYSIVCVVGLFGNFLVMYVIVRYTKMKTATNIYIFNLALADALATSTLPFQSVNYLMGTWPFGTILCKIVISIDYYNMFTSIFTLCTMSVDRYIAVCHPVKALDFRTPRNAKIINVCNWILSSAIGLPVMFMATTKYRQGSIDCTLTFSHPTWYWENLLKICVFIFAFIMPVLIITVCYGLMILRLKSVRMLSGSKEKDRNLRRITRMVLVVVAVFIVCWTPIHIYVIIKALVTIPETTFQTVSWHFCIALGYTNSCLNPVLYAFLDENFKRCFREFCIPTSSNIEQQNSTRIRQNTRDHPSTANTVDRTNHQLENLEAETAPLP

δ-opioid receptor (DOR), Human-ORPD1, sequence (P41143 whole entry, stated change not applied): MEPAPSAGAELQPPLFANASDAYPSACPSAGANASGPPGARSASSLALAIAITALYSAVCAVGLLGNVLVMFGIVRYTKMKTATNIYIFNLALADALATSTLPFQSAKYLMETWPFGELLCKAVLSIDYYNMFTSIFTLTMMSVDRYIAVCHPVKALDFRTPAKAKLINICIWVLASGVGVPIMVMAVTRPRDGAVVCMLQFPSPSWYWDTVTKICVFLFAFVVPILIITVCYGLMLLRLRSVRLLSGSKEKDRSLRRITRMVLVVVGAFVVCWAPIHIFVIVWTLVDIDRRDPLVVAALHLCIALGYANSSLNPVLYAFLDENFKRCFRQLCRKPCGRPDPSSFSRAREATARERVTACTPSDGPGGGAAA

B1: H-DMT-a-Leu-bhF-Sar-NH2 (peptide)
peptide: H-[Dmt][dA]L[β3hF][Sar]-NH2
SMILES: Cc1cc(O)cc(C)c1C[C@H](N)C(=O)N[C@H](C)C(=O)N[C@@H](CC(C)C)C(=O)N[C@H](CC(=O)N(C)CC(N)=O)Cc1ccccc1
[1]
  DOR EC50: ≤ 50 nM
[2]
  MOR EC50: ≤ 1 nM

B2: H-DMT-a-ILeu-bhF-Sar-NH2 (peptide)
peptide: H-[Dmt][dA]I[β3hF][Sar]-NH2
SMILES: CC[C@H](C)[C@H](NC(=O)[C@@H](C)NC(=O)[C@@H](N)Cc1c(C)cc(O)cc1C)C(=O)N[C@H](CC(=O)N(C)CC(N)=O)Cc1ccccc1
[1]
  DOR EC50: ≤ 50 nM
[2]
  MOR EC50: ≤ 1 nM

B3: H-DMT-a-Aib-bhF-Sar-NH2 (peptide)
peptide: H-[Dmt][dA][Aib][β3hF][Sar]-NH2
SMILES: Cc1cc(O)cc(C)c1C[C@H](N)C(=O)N[C@H](C)C(=O)NC(C)(C)C(=O)N[C@H](CC(=O)N(C)CC(N)=O)Cc1ccccc1
[1]
  DOR EC50: ≤ 1 nM
[2]
  MOR EC50: ≤ 1 nM

B4: H-Phe(DMC)-G-G-bhF-Sar-NH2 (peptide)
peptide: H-[Phe(2,6-Me2,4-CONH2)]GG[β3hF][Sar]-NH2
SMILES: Cc1cc(C(N)=O)cc(C)c1C[C@H](N)C(=O)NCC(=O)NCC(=O)N[C@H](CC(=O)N(C)CC(N)=O)Cc1ccccc1
[1]
  DOR EC50: ≤ 1 nM
[2]
  MOR EC50: ≤ 1 nM

B5: H-Phe(DMC)-(D)Thr-G-bhF-Sar-NH2 (peptide)
peptide: H-[Phe(2,6-Me2,4-CONH2)][dT]G[β3hF][Sar]-NH2
SMILES: Cc1cc(C(N)=O)cc(C)c1C[C@H](N)C(=O)N[C@@H](C(=O)NCC(=O)N[C@H](CC(=O)N(C)CC(N)=O)Cc1ccccc1)[C@H](C)O
[1]
  DOR EC50: ≤ 1 nM
[2]
  MOR EC50: ≤ 10 nM

B6: H-DMT-G-G-bhF-Sar-NH2 (peptide)
peptide: H-[Dmt]GG[β3hF][Sar]-NH2
SMILES: Cc1cc(O)cc(C)c1C[C@H](N)C(=O)NCC(=O)NCC(=O)N[C@H](CC(=O)N(C)CC(N)=O)Cc1ccccc1
[1]
  DOR EC50: ≤ 1 nM
[2]
  MOR EC50: ≤ 1 nM

## H-[Dmt][dNMeA]XG-NH2 (not fully specified (residue 3); printed as DMT-N(Me)a-Aba-G) [H-DMT-N(Me)-a-Aba-G-NH2]
[1]
  DOR EC50: ≤ 1 nM
[2]
  MOR EC50: ≤ 1 nM

B7: H-DMT-(D)Thr-G-bhF-Sar-NH2 (peptide)
peptide: H-[Dmt][dT]G[β3hF][Sar]-NH2
SMILES: Cc1cc(O)cc(C)c1C[C@H](N)C(=O)N[C@@H](C(=O)NCC(=O)N[C@H](CC(=O)N(C)CC(N)=O)Cc1ccccc1)[C@H](C)O
[1]
  DOR EC50: ≤ 1 nM
[2]
  MOR EC50: ≤ 1 nM

B8: H-DMT-(D)Asp-G-bhF-Sar-NH2 (peptide)
peptide: H-[Dmt][dD]G[β3hF][Sar]-NH2
SMILES: Cc1cc(O)cc(C)c1C[C@H](N)C(=O)N[C@H](CC(=O)O)C(=O)NCC(=O)N[C@H](CC(=O)N(C)CC(N)=O)Cc1ccccc1
[1]
  DOR EC50: ≤ 1 nM
[2]
  MOR EC50: ≤ 1 nM

B9: H-DMT-(D)Tyr-G-bhF-Sar-NH2 (peptide)
peptide: H-[Dmt][dY]G[β3hF][Sar]-NH2
SMILES: Cc1cc(O)cc(C)c1C[C@H](N)C(=O)N[C@H](Cc1ccc(O)cc1)C(=O)NCC(=O)N[C@H](CC(=O)N(C)CC(N)=O)Cc1ccccc1
[1]
  DOR EC50: ≤ 1 nM
[2]
  MOR EC50: ≤ 1 nM

B10: H-DMT-r-F-Sar-NH2 (peptide)
peptide: H-[Dmt][dR]F[Sar]-NH2
SMILES: Cc1cc(O)cc(C)c1C[C@H](N)C(=O)N[C@H](CCCNC(=N)N)C(=O)N[C@@H](Cc1ccccc1)C(=O)N(C)CC(N)=O
[1]
  DOR EC50: ≤ 10 nM
[2]
  MOR EC50: ≤ 1 nM

B11: H-DMT-N(Me)-a-F-Sar-NH2 (peptide)
peptide: H-[Dmt][dNMeA]F[Sar]-NH2
SMILES: Cc1cc(O)cc(C)c1C[C@H](N)C(=O)N(C)[C@H](C)C(=O)N[C@@H](Cc1ccccc1)C(=O)N(C)CC(N)=O
[1]
  DOR EC50: ≤ 10 nM
[2]
  MOR EC50: ≤ 1 nM

B12: H-Phe(DMC)-Tic-G-bhF-Sar-NH2 (peptide)
peptide: H-[Phe(2,6-Me2,4-CONH2)][Tic]G[β3hF][Sar]-NH2
SMILES: Cc1cc(C(N)=O)cc(C)c1C[C@H](N)C(=O)N1Cc2ccccc2C[C@H]1C(=O)NCC(=O)N[C@H](CC(=O)N(C)CC(N)=O)Cc1ccccc1
[1]
  DOR EC50: ≤ 200 nM
[2]
  MOR EC50: ≤ 200 nM

B13: H-DMT-Tic-G-bhF-Sar-NH2 (peptide)
peptide: H-[Dmt][Tic]G[β3hF][Sar]-NH2
SMILES: Cc1cc(O)cc(C)c1C[C@H](N)C(=O)N1Cc2ccccc2C[C@H]1C(=O)NCC(=O)N[C@H](CC(=O)N(C)CC(N)=O)Cc1ccccc1
[1]
  DOR EC50: ≤ 200 nM
[2]
  MOR EC50: ≤ 200 nM

B14: H-DMT-r-W-N(Me)bAla-OH (peptide)
peptide: H-[Dmt][dR]W[NMeβAla]-OH
SMILES: Cc1cc(O)cc(C)c1C[C@H](N)C(=O)N[C@H](CCCNC(=N)N)C(=O)N[C@@H](Cc1c[nH]c2ccccc12)C(=O)N(C)CCC(=O)O
[1]
  DOR EC50: ≤ 50 nM
[2]
  MOR EC50: ≤ 1 nM

## H-[Dmt][dR]X[NMeβAla]-OH (not fully specified (residue 3); printed as H-DMT-r-Homo-F-N(Me)bAla-OH) [H-DMT-r-Homo-F-N(Me)bAla-OH]
[1]
  DOR EC50: ≤ 1 nM
[2]
  MOR EC50: ≤ 1 nM

B15: H-DMT-r-Phe(4-F)-Sar-NH2 (peptide)
peptide: H-[Dmt][dR][Phe(4-F)][Sar]-NH2
SMILES: Cc1cc(O)cc(C)c1C[C@H](N)C(=O)N[C@H](CCCNC(=N)N)C(=O)N[C@@H](Cc1ccc(F)cc1)C(=O)N(C)CC(N)=O
[1]
  DOR EC50: ≤ 10 nM
[2]
  MOR EC50: ≤ 1 nM

B16: H-DMT-r-Phe(4-CN)-Sar-NH2 (peptide)
peptide: H-[Dmt][dR][Phe(4-CN)][Sar]-NH2
SMILES: Cc1cc(O)cc(C)c1C[C@H](N)C(=O)N[C@H](CCCNC(=N)N)C(=O)N[C@@H](Cc1ccc(C#N)cc1)C(=O)N(C)CC(N)=O
[1]
  DOR EC50: ≤ 1 nM
[2]
  MOR EC50: ≤ 10 nM

B17: H-DMT-r-Bip-K-NH2 (peptide)
peptide: H-[Dmt][dR][Bip]K-NH2
SMILES: Cc1cc(O)cc(C)c1C[C@H](N)C(=O)N[C@H](CCCNC(=N)N)C(=O)N[C@@H](Cc1ccc(-c2ccccc2)cc1)C(=O)N[C@@H](CCCCN)C(N)=O
[1]
  DOR EC50: > 200 nM
[2]
  MOR EC50: ≤ 200 nM

B18: H-DMT-dTic-F-Sar-NH2 (peptide)
peptide: H-[Dmt][dTic]F[Sar]-NH2
SMILES: Cc1cc(O)cc(C)c1C[C@H](N)C(=O)N1Cc2ccccc2C[C@@H]1C(=O)N[C@@H](Cc1ccccc1)C(=O)N(C)CC(N)=O
[1]
  DOR EC50: ≤ 10 nM
[2]
  MOR EC50: ≤ 1 nM

B19: H-DMT-dTic-G-F-Sar-NH2 (peptide)
peptide: H-[Dmt][dTic]GF[Sar]-NH2
SMILES: Cc1cc(O)cc(C)c1C[C@H](N)C(=O)N1Cc2ccccc2C[C@@H]1C(=O)NCC(=O)N[C@@H](Cc1ccccc1)C(=O)N(C)CC(N)=O
[1]
  DOR EC50: ≤ 1 nM
[2]
  MOR EC50: ≤ 1 nM

B20: H-DMT-a-hF-Sar-NH2 (peptide)
peptide: H-[Dmt][dA][hPhe][Sar]-NH2
SMILES: Cc1cc(O)cc(C)c1C[C@H](N)C(=O)N[C@H](C)C(=O)N[C@@H](CCc1ccccc1)C(=O)N(C)CC(N)=O
[1]
  DOR EC50: ≤ 1 nM
[2]
  MOR EC50: ≤ 1 nM
